These results are taken from patent US20120088313A1 (JAPAN TOBACCO, published 2012).

The target of the test is T1, BioEase tag-fused SITH-1 protein (human herpes virus 6 (HHV-6), biotinylated in vivo (E. coli) within the N-terminal BioEase tag; residue not stated).
T1 construct: Fusion of the BioEase biotinylation tag (N-terminal) with HHV-6 SITH-1, expressed in E. coli BL21 (DE3); Used as a crude extract on blots, or captured on a TM2 plate; also called BioEase-SITH-1 fusion protein; biotinylated SITH-1
T1 chain: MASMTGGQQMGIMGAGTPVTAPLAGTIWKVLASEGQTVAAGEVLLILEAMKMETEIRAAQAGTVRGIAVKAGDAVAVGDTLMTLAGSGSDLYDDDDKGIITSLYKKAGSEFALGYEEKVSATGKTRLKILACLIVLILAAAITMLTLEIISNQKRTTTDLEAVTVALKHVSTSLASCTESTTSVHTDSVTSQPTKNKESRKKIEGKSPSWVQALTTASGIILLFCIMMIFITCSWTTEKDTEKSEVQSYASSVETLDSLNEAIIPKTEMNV
The experiment in a line: capture of crude extract on TM2-coated microplate (binding through biotin).

B1: tamavidin 2 (other)
chain: MSDVQSSLTGTWYNELNSKMELTANKDGTLTGKYLSKVGDVYVPYPLSGRYNLQPPAGQGVALGWAVSWENSKIHSATTWSGQFFSESSPVILTQWLLSSSTARGDVWESTLVGNDSFTKTAPTEQQIAHAQLHCRAPRLK
notes: Purified TM2 immobilized on a New ELISA microplate; also called TM2; purified TM2
Consider B1, for which the binding result is listed as “binds”.
